Experimental data reported in the supplement of paper PMC11246515.
± gives the standard deviation of the averaged measurements.

Assay: total protein half-life in vivo (active degradation + dilution); higher = more stable protein
[1] = E. coli NCM3722 delta-clpP, growth: N-lim chemostat, doubling time 6 h
[2] = E. coli NCM3722 delta-hslV, growth: N-lim chemostat, doubling time 6 h
[3] = E. coli NCM3722 delta-lon, growth: N-lim chemostat, doubling time 6 h
[4] = E. coli NCM3722 delta-smpB, growth: N-lim chemostat, doubling time 6 h
[5] = wild type E. coli NCM3722, growth: C-lim chemostat, doubling time 3 h
[6] = wild type E. coli NCM3722, growth: C-lim chemostat, doubling time 6 h
[7] = wild type E. coli NCM3722, growth: C-lim chemostat, doubling time 12 h
[8] = wild type E. coli NCM3722, growth: N-lim chemostat, doubling time 6 h
[9] = wild type E. coli NCM3722, growth: N-lim chemostat, doubling time 12 h
[10] = wild type E. coli NCM3722, growth: P-lim chemostat, doubling time 6 h
[11] = wild type E. coli NCM3722, growth: P-lim chemostat, doubling time 12 h
[12] = E. coli NCM3722 delta-clpP delta-lon delta-hslV, growth: N-lim chemostat, doubling time 6 h

MRQTKTGILLANLGTPDAPTPEAVKRYLKQFLSDRRVVDTSRLLWWPLLRGVILPLRSPRVAKLYASVWMEGGSPLMVYSRQQQQALAQRLPEMPVALGMSYGSPSLESAVDELLAEHVDHIVVLPLYPQFSCSTVGAVWDELARILARKRSIPGISFIRDYADNHDYINALANSVRASFAKHGEPDLLLLSYHGIPQRYADEGDDYPQRCRTTTRELASALGMAPEKVMMTFQSRFGREPWLMPYTDETLKMLGEKGVGHIQVMCPGFAADCLETLEEIAEQNREVFLGAGGKKYEYIPALNATPEHIEMMANLVAAYR
total protein half-life in vivo [1]: 6.11 ± 0.13 h | total protein half-life in vivo [2]: 6.43 ± 0.78 h | total protein half-life in vivo [3]: 5.98 ± 0.68 h | total protein half-life in vivo [4]: 5.63 ± 0.32 h | total protein half-life in vivo [5]: 2.96 ± 0.033 h | total protein half-life in vivo [6]: 6.24 ± 0.92 h | total protein half-life in vivo [7]: 10.5 ± 2.5 h | total protein half-life in vivo [8]: 5.33 ± 0.98 h | total protein half-life in vivo [9]: 12.1 ± 0.19 h | total protein half-life in vivo [10]: 5.73 ± 0.36 h | total protein half-life in vivo [11]: 12.2 ± 1.5 h

MRRFFWLVAAALLLAGCAGEKGIVEKEGYQLDTRRQAQAAYPRIKVLVIHYTADDFDSSLATLTDKQVSSHYLVPAVPPRYNGKPRIWQLVPEQELAWHAGISAWRGATRLNDTSIGIELENRGWQKSAGVKYFAPFEPAQIQALIPLAKDIIARYHIKPENVVAHADIAPQRKDDPGPLFPWQQLAQQGIGAWPDAQRVNFYLAGRAPHTPVDTASLLELLARYGYDVKPDMTPREQRRVIMAFQMHFRPTLYNGEADAETQAIAEALLEKYGQD
total protein half-life in vivo [12]: 6.4 ± 0.46 h | total protein half-life in vivo [1]: 6.3559 ± 0.0044 h | total protein half-life in vivo [2]: 6.75 ± 0.56 h | total protein half-life in vivo [3]: 7.41 ± 0.34 h | total protein half-life in vivo [4]: 5.75 ± 0.39 h | total protein half-life in vivo [5]: 3.0599 ± 3.5e-05 h | total protein half-life in vivo [7]: 11.2 ± 0.38 h | total protein half-life in vivo [9]: 12.4 ± 0.43 h | total protein half-life in vivo [10]: 5.63 ± 1.1 h | total protein half-life in vivo [11]: 13.9 ± 1.3 h

MRRFLTTLMILLVVLVAGLSALVLLVNPNDFRDYMVKQVAARSGYQLQLDGPLRWHVWPQLSILSGRMSLTAQGASQPLVRADNMRLDVALLPLLSHQLSVKQVMLKGAVIQLTPQTEAVRSEDAPVAPRDNTLPDLSDDRGWSFDISSLKVADSVLVFQHEDDEQVTIRNIRLQMEQDPQHRGSFEFSGRVNRDQRDLTISLNGTVDASDYPHDLTAAIEQINWQLQGADLPKQGIQGQGSFQAQWQESHKRLSFNQISLTANDSTLSGQAQVTLTEKPEWQLRLQFPQLNLDNLIPLNETANGENGAAQQGQSQSTLPRPVISSRIDEPAYQGLQGFTADILLQASNVRWRGMNFTDVATQMTNKSGLLEITQLQGKLNGGQVSLPGTLDATSINPRINFQPRLENVEIGTILKAFNYPISLTGKMSLAGDFSGADIDADAFRHNWQGQAHVEMTDTRMEGMNFQQMIQQAVERNGGDVKAAENFDNVTRLDRFTTDLTLKDGVVTLNDMQGQSPVLALTGEGMLNLADQTCDTQFDIRVVGGWNGESKLIDFLKETPVPLRVYGNWQQLNYSLQVDQLLRKHLQDEAKRRLNDWAERNKDSRNGKDVKKLLEKM
total protein half-life in vivo [12]: 6.52 ± 0.57 h | total protein half-life in vivo [2]: 6.45 ± 0.47 h | total protein half-life in vivo [3]: 6.24 ± 0.085 h | total protein half-life in vivo [4]: 6.43 ± 0.59 h | total protein half-life in vivo [5]: 3.54 ± 0.42 h | total protein half-life in vivo [6]: 6.18 ± 0.13 h | total protein half-life in vivo [7]: 11.4 ± 0.47 h | total protein half-life in vivo [8]: 6.231 ± 0.012 h | total protein half-life in vivo [9]: 13 ± 0.012 h | total protein half-life in vivo [10]: 6.266 ± 0.044 h | total protein half-life in vivo [11]: 11.5 ± 0.13 h

MRTISYSEARQNLSATMMKAVEDHAPILITRQNGEACVLMSLEEYNSLEETAYLLRSPANARRLMDSIDSLKSGKGTEKDIIE
total protein half-life in vivo [12]: 2.74 h | total protein half-life in vivo [1]: 2 ± 0.78 h | total protein half-life in vivo [2]: 2.66 ± 0.31 h | total protein half-life in vivo [4]: 3.15 h | total protein half-life in vivo [5]: > 4 h | total protein half-life in vivo [6]: 1.57 ± 0.23 h | total protein half-life in vivo [7]: 2.2 ± 1.2 h | total protein half-life in vivo [8]: 1.8 h | total protein half-life in vivo [9]: 2.86 ± 0.17 h | total protein half-life in vivo [10]: 1.67 h | total protein half-life in vivo [11]: 3.61 ± 0.31 h

MRTSQYLLSTLKETPADAEVISHQLMLRAGMIRKLASGLYTWLPTGVRVLKKVENIVREEMNNAGAIEVSMPVVQPADLWQESGRWEQYGPELLRFVDRGERPFVLGPTHEEVITDLIRNELSSYKQLPLNFYQIQTKFRDEVRPRFGVMRSREFLMKDAYSFHTSQESLQETYDAMYAAYSKIFSRMGLDFRAVQADTGSIGGSASHEFQVLAQSGEDDVVFSDTSDYAANIELAEAIAPKEPRAAATQEMTLVDTPNAKTIAELVEQFNLPIEKTVKTLLVKAVEGSSFPQVALLVRGDHELNEVKAEKLPQVASPLTFATEEEIRAVVKAGPGSLGPVNMPIPVVIDRTVAAMSDFAAGANIDGKHYFGINWDRDVATPEVADIRNVVAGDPSPDGQGRLLIKRGIEVGHIFQLGTKYSEALKASVQGEDGRNQILTMGCYGIGVTRVVAAAIEQNYDERGIVWPDAIAPFQVAILPMNMHKSFRVQELAEKLYSELRAQGIEVLLDDRKERPGVMFADMELIGIPHTIVLGDRNLDNDDIEYKYRRNGEKQLIKTGDIVEYLVKQIKG
total protein half-life in vivo [12]: 5.92 ± 0.2 h | total protein half-life in vivo [1]: 5.61 ± 0.85 h | total protein half-life in vivo [2]: 5.37 ± 0.21 h | total protein half-life in vivo [3]: 6.14 ± 0.13 h | total protein half-life in vivo [4]: 5.24 ± 0.2 h | total protein half-life in vivo [5]: 3.1 ± 0.061 h | total protein half-life in vivo [6]: 6.12 ± 0.33 h | total protein half-life in vivo [7]: 10.9 ± 0.57 h | total protein half-life in vivo [8]: 5.4 ± 0.19 h | total protein half-life in vivo [9]: 10.6 ± 0.72 h | total protein half-life in vivo [10]: 6.14 ± 0.17 h | total protein half-life in vivo [11]: 12.2 ± 1.2 h
